Results reported in PMC8131599.

Assays:
[1] = biological target: EV-D68 mature virion, strain US/MO/14-18947 (clade B) (enterovirus D68 strain US/MO/14-18947); assay: BLI
[2] = biological target: EV-D68 mature virion, strain US/MO/14-18947 (clade B) (enterovirus D68 strain US/MO/14-18947)

Substance: anti-EV-D68 MAb 8F12 (murine, IgG2b) (from UniProt P01867)
- Kd [1]: 0.92 nM
- koff [1]: 0.00035 s⁻¹

Substance: anti-EV-D68 MAb 8F12 (murine, IgG2b) (antibody)
- IC50 of neutralization of EV-D68 strain 18947 on RD cells (cell viability, CellTiter-Glo) [2]: 4 ng/mL
- neutralization concentration (lowest antibody concentration that fully inhibits cytopathic effect) against strain 18947 [2]: 0.06 µg/mL
